# Assay results reported in publication PMC8580320 (Science Advances, 2021).
# B1: MtaLonC-S582A (enzyme)
# chain: MRLSYEALEWRTPIENSTEPVSLPPPPPFFGQERAREALELAIRGGFHAYLVGPPSLGKHEALLAYLSTQSVETPPDLLYVPLSERKVAVLTLPSGQEIHLAEAVEGLLLEVNRLDELFRQGSFLREKTQLEARFKEAREQQLEALRREAQEAGFALSTNGERLELTGPGPVPAELSARLEEVTLGSLAASAELEVALRRLRRDWALHYLNNRFEPLFQRFPQARAYLEALRARLARYAETGEPLDPAQWRPNLLTSSSSGTPPPIVYEPYATAPRLFGRLDYLVDRGVWSTNVSLIRPGAVHRAQGGYLILDALSLKREGTWEAFKRALRNGQVEPVTEPQAPAGLEVEPFPIQMQVILVGTPEAFEGLEEDPAFSELFRIRAEFSPTLPASPENCTALGGWLLAQGFQLTQGGLTRLYDEARRMAEQRDRMDARLVEIRALAEEAAVLGGGLLTAESVEQAIAAREHRSFLSEEEFLRAVQEGVIRLRTTGRAVGEVNSLVVVEAAPYWGRPARLTARAAPGRDHLISIDREAGLGGQIFHKAVLTLAGYLRSRYIEHGSLPVTISLAFEQNYVSIEGDAAGLAELVAALSAIGNLPLRQDLAVTGAVDQTGKVLAVGAINAKVEGFFRVCKALGLSGTQGVILPEANLANLTLRAEVLEAVRAGQFHIYAVETAEQALEILAGARMEGFRGLQEKIRAGLEAFARLEEGHDKEDREKLAAALEHHHHHH
# Target: the molecule itself
# Test: crystal structure
protein,measurement,value
B1,stoichiometry N,6
